Data taken from article PMC6249037.

Key:
[1] = target: N15 TCRαβ heterodimer, WT TCRα (mouse) (UniProt P01849)
[2] = target: N15 TCRαβ heterodimer, TCRα R251L (mouse)

Sequence of UniProt P01849 (P01849 whole entry, looked up, one chain of several): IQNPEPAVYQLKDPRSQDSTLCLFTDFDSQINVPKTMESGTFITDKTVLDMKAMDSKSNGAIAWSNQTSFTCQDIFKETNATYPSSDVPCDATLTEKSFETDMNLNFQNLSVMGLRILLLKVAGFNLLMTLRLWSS

Which results are given for “VSV8K^b (vesicular stomatitis virus nucleoprotein octapeptide VSV8 bound to [change]^b) (peptide-MHC)”?
force maximum for catch-bond formation (CD3δ-SxxS cell line) [1]: 15 pN; maximal bond lifetime (catch bond; CD3δ-SxxS cell line) [1]: 8 s; catch bond force maximum [2]: 10 pN
